Assays:
human ILT7 (human) [1] = molecular target: human ILT7 (human) (UniProt P59901); assay: FACS dot plot of human PBMCs, CD304-PE against AF647-labeled antibody (lower left panel); upper left quadrant (CD304+ AF647-) 0.532
human ILT7 (human) [2] = molecular target: human ILT7 (human) (UniProt P59901); assay: flow cytometry of human PBMCs with APC-labeled antibody at 2.5 µg/ml, histogram gated on BDCA-4+ pDCs (lower row)
human ILT7 (human) [3] = molecular target: human ILT7 (human) (UniProt P59901); assay: flow cytometry dot plot of human PBMCs, BDCA-4 against APC-labeled antibody (upper row); upper left quadrant (BDCA-4+ APC-) 0.36

Sequence of human ILT7 (human) (P59901 24-499): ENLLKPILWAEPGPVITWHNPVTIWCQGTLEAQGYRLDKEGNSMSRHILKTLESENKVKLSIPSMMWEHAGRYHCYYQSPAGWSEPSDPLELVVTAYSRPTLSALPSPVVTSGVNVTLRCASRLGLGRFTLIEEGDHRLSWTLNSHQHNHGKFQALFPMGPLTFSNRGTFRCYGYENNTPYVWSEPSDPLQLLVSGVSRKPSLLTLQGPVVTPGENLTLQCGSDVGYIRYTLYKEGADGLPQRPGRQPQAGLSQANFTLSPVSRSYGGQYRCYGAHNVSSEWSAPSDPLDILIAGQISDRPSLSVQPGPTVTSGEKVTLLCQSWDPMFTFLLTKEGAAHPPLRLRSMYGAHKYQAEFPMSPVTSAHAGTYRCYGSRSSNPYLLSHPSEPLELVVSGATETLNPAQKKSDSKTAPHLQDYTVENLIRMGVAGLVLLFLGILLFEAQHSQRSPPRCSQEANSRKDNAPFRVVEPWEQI

Row | percent of PBMCs in the CD304+ AF647+ quadrant (upper right) (human ILT7 (human) [1]) | percent of pDCs (BDCA-4+ cells) in the APC-positive gate (human ILT7 (human) [2]) | percent of PBMCs in the BDCA-4+ APC+ quadrant (upper right) (human ILT7 (human) [3]) | Substance
1 | 0.0153% | – | – | afucosylated isotype control R347 (antibody)
2 | – | 0.59% | 0.000963% | isotype control R347 (antibody)

Source: patent US20220144940A1
